The target in one experiment is T1, human ALPP on CHO cells (human, UniProt P05187 23-506).
T1 construct: whole, on cells; also called CHO-ALPP
The experiment can be described thus: flow cytometry, CHO cells stably expressing human ALPP; PDC detected with FITC anti-human Ab. As to the method: (§1) Biparatopic VHH-hFc drug conjugates were assessed for human ALPP, ALPPL2, ALPI and ALPL cell-surface binding by flow cytometry. Binders were screened on CHO cells stably expressing human ALPP, ALPPL2, ALPI or ALPL.
Cell surface binding of test agents to hALPP isoforms was characterized in four CHO-ALPP isoform transfectant cell lines (CHO-ALPP, CHO-ALPPL2, CHO-ALPI and CHO-ALPL) and the resulting KDapp values determined. Adherent cells were detached from tissue culture flasks by incubating with 0.1% EDTA/PBS solution at 37° C. for […] or until cells detached easily. Cells were re-suspended in ice-cold PBS/2% FCS in 15 ml tubes and centrifuged at 1700 rpm for 5 mins at 4° C. Supernatant was removed and the cell pellet re-suspended in PBS/2% FCS. […] Cells were incubated with 100 μl of test agents at a range of concentrations, plus controls for 1 hr on ice. The sample plate was centrifuged at 1700 rpm for 5 mins at 4° C. The supernatant was removed, and a wash performed by re-suspending the cell pellets in 0.25 mL of ice-cold PBS/2% FCS using a multichannel pipette. Samples were again centrifuged at 1700 rpm for 5 min at 4° C. Supernatant was removed and two further washes performed as described. […] Binding of VHH-hFc agents was determined by adding 100 μl of Fitc-anti-human Ab (ThermoFisher) and incubating for 30 mins on ice in the dark. […]
For orientation: Flow cytometry measures light scatter and fluorescence of single cells or particles in a stream.

In another experiment the target is T2, human ALPL on CHO cells (human, UniProt P05186 18-501).
T2 construct: whole, on cells; also called CHO-ALPL
T2 sequence (looked up): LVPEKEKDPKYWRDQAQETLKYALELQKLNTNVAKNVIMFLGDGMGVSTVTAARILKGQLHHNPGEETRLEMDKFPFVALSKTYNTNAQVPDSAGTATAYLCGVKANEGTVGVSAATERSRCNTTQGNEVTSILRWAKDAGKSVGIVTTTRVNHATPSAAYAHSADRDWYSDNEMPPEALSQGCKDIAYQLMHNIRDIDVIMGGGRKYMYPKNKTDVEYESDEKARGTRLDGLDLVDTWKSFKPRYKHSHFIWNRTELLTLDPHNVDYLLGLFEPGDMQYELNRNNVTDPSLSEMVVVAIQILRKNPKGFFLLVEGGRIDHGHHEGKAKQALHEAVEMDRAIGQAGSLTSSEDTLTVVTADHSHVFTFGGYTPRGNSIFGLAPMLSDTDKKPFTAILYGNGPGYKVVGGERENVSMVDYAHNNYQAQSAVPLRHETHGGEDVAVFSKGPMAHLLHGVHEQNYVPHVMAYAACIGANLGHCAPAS
The experiment can be described thus: flow cytometry, CHO cells stably expressing human ALPL; PDC detected with FITC anti-human Ab. As to the method: as §1
Cell surface binding of test agents to hALPP isoforms was characterized in four CHO-ALPP isoform transfectant cell lines (CHO-ALPP, CHO-ALPPL2, CHO-ALPI and CHO-ALPL) and the resulting KDapp values determined. Adherent cells were detached from tissue culture flasks by incubating with 0.1% EDTA/PBS solution at 37° C. for […] or until cells detached easily. Cells were re-suspended in ice-cold PBS/2% FCS in 15 ml tubes and centrifuged at 1700 rpm for 5 mins at 4° C. Supernatant was removed and the cell pellet re-suspended in PBS/2% FCS. […] Cells were incubated with 100 μl of test agents at a range of concentrations, plus controls for 1 hr on ice. The sample plate was centrifuged at 1700 rpm for 5 mins at 4° C. The supernatant was removed, and a wash performed by re-suspending the cell pellets in 0.25 mL of ice-cold PBS/2% FCS using a multichannel pipette. Samples were again centrifuged at 1700 rpm for 5 min at 4° C. Supernatant was removed and two further washes performed as described. After the final wash and centrifugation step, excess liquid was removed by blotting the plate on tissue paper. Binding of VHH-hFc agents was determined by adding 100 μl of Fitc-anti-human Ab (ThermoFisher) and incubating for 30 mins on ice in the dark. Wash steps were performed as described previously. All cell pellets were finally re-suspended in 0.28 ml of ice-cold PBS/2% FCS and left on ice in the dark prior to analysis on a Merck-Millipore Guava EasyCyte HT or Thermo Fisher Attune N×T flow cytometer.

B1: D10-A06-hFc-vcPAB-MMAE [G4S]1 (Fc fusion, DAR 4)
chain 1: QVQLVESGGGLVQPGGSLRLSCAASGSIFSVNTMGWYRQAPGKQRDLVAVATSGGTIHYADSVKGRFTISRDNAKNTVYLQMNSLKPEDTAVYYCNLVVPYGMIAGDHDYWGQGTKVTVSSGGGGSEPKSSDKTHTCPPCPAPELLGGPCVFLFPPKPKDTLMISRTPEVTCVVVDVSHEDPEVKFNWYVDGVEVHNAKTKPREEQYNSTYRVVSVLTVLHQDWLNGKEYKCKVSNKALPAPIEKTISKAKGQPREPQVYTLPPSRDELTKNQVSLYCLVKGFYPSDIAVEWESNGQPENNYKTTPPVLDSDGSFFLYSKLTVDKSRWQQGNVFSCSVMHEALHNHYTQKSLCLSPGK
chain 2: QVHLVESGGGLVQAGGSLRLSCAASGRTFLSMGWFRQAPGKEREFVAAISWTGGSTGYADSVKGRFTISRESDKETMYLQMNSLKPEDTAVYYCAARGDVYYGGDDATRYKYWGQGTQVTVSSGGGGSEPKSSDKTHTCPPCPAPELLGGPCVFLFPPKPKDTLMISRTPEVTCVVVDVSHEDPEVKFNWYVDGVEVHNAKTKPREEQYNSTYRVVSVLTVLHQDWLNGKEYKCKVSNKALPAPIEKTISKAKGQPREPQVYTLPPSRDELTKNQVSLTCLVKGFYPSDIAVEWESNGQPENNYKTTPPVLDSDGSFFLTSKLTVDKSRWQQGNVFSCSVMHEALHNHYTQKSLCLSPGK
modifications: MC-vc-PAB-MMAE on Cys 239 and Cys 442 (EU numbering)
notes: Biparatopic drug conjugate, DAR 4; also called #676
A word on the EC50 (read off the curve): it is the concentration that produces a half-maximal response. Take B1: in the experiment with human ALPP on CHO cells, the “EC50 (read off the curve)” value lay within 10 to 22 nM. Also, the binding result with human ALPL on CHO cells was “no binding (tested: 350 nM)”.

These data come from patent US20260216242A1 (ALMAC DISCOVERY, published 2026).
